The record followed here is patent US20030036169A1.

The target of this assay is APP695 (human) (UniProt P05067). Kind of assay: cell-based or functional assay.

B1: Mint 3 (protein, rat, UniProt O70248 1-569, looked up)
chain: MEFLPEPQHPPGPPTMDLEEPKGPEVPSEDHPSNTQWALGPRGPDTLSEMELDTSSVRALVQQLEALPSDLGGQFPDGAPCPLHIATGQGLATQENLDAGGLLSAEAGGDNLLGLLRCEASLPAQSVPPDPAQAAPRLLQPPEDPGGDPGWMEGTEPADNRSSSSSPELWLETAPLVTHRDPPVGTQSQETLASCPAVSEVPGPCGQEELMDGVLFGAKYLGSTQLLSERNPPPSTRMGQAQEAMDRVKAPEGETQPMTEVDIFISTKRVKVLAADSQDALMDHALQTISYIADIGPVLVLMARRRLAKRTTSQDRQRQLYKMLCHVFHSEDAQLIAQAIGQAFSIAYSQFLQENRIDPSQVGMQPSASASHPHNGDLDHFCNSQNCREVCIQKRPGEGLGVALVESGWGSLLPTAVIANLLHGGPAERCGALSIGDRVTAINGTSLVGLSLAACQAAVREVRRHSSVTLSIIHCPPVTTAVIHRPHVREQLGFCVENGIICSLLRGSAAERGGVRVGHRIIEVNGQSVVAMPHARIIQLLTETREIHIKTMPAATYRLLTGQEQPVYL
As to B1, the steady-state levels of transfected APP695 in HEK293 cells (quantitative immunoblot) is less than 3 fold.

B2: Mint 2 (protein)
chain: MAHRKRQSTASSMLDHRARPGPIPHDQEPENEDTELPLESYVPTGLELGTLRPDSPTPEEQECHNHSPDGDSSSDYVNNTSEEEDYDEGLPEEEEGVTYYIRYCPEDDSYLEGMDCNGEEYLAHGAHPVDTDECQEAVEDWTDSVGPHTHSHGAENSQEYPDSHLPIPEDDPTVLEVHDQEEDGHYCPSKESYQDYYPPETNGNTGGASPYRMRRGDGDLEEQEEDIDQIVAEIKMSLSMTSITSASEASPEHMPELDPGDSTEACSPSDTGRGPSRQEARPKSLNLPPEVKHSGDPQRGLKTKTRTPEERPKWPQEQVCNGLEQPRKQQRSDLNGPTDNNNIPETKKVASFPSFVAVPGPCEPEDLIDGIIFAANYLGSTQLLSERNPSKNIRMMQAQEAVSRVKRMQKAAKIKKKANSEGDAQTLTEVDLFISTQRIKVLNADTQETMMDHALRTISYIADIGNIVVLMARRRMPRSASQDCIETTPGAQEGKKQYKMICHVFESEDAQLIAQSIGQAFSVAYQEFLRANGINPEDLSQKEYSDIINTQEMYNDDLIHFSNSENCKELQLEKHKGEILGVVVVESGWGSILPTVILANMMNGGPAARSGKLSIGDQIMSINGTSLVGLPLATCQGIIKGLKNQTQVKLNIVSCPPVTTVLIKRPDLKYQLGFSVQNGIICSLMRGGIAERGGVRVGHRIIEINGQSVVATAHEKIVQALSNSVGEIHMKTMPAAMFRLLTGQETPLYI
B2 came in with a steady-state levels of transfected APP695 in HEK293 cells (quantitative immunoblot) of less than 3 fold.

B3: Mint 1 (protein)
chain: MNHLEGSAEVEVADEAPGGEVNESVEADLEHPEVEEEQQPSPPPPAGHAPEDHRAHPAPPPPPPPQEEEEERGECLARSASTESGFHNHTDTAEGDVLAAARDGYEAERAQDADDESAYAVQYRPEAEEYTEQAEAEHAEAAQRRALPNHLHFHSLEHEEAMNAAYSGYVYTHRLFHRAEDEPYAEPYADYGGLQEHVYEEIGDAPELEARDGLRLYERERDEAAAYRQEALGARLHHYDERSDGESDSPEKEAEFAPYPRMDSYEQEEDIDQIVAEVKQSMSSQSLDKAAEDMPEAEQDLERAPTPGGGHPDSPGLPAPAGQQQRVVGTPGGSEVGQRYSKEKRDAISLAIKDIKEAIEEVKTRTIRSPYTPDEPKEPIWVMRQDISPTRDCDDQRPVDGDSPSPGSSSPLGAESSITPLHPGDPTEASTNKESRKSLASFPTYVEVPGPCDPEDLIDGIIFAANYLGSTQLLSDKTPSKNVRMMQAQEAVSRIKTAQKLAKSRKKAPEGESQPMTEVDLFISTQRIKVLNADTQEPMMDHPLRTISYIADIGNIVVLMARRRMPRSNSQENVEASHPSQDAKRQYKMICHVFESEDAQLIAQSIGQAFSVAYQEFLRANGINPEDLSQKEYSDLLNTQDMYNDDLIHFSKSENCKDVFIEKQKGEILGVVIVESGWGSILPTVIIANMMHGGPAEKSGKLNIGDQIMSINGTSLVGLPLSTCQSIIKGLKNQSRVKLNIVRCPPVTTVLIRRPDLRYQLGFSVQNGIICSLMRGGIAERGGVRVGHRIIEINGQSVVATPHEKIVHILSNAVGEIHMKTMPAAMYRLLTAQEQPVYI
On to B3, for which the steady-state levels of transfected APP695 in HEK293 cells (quantitative immunoblot) is less than 3 fold.
